Laboratory results from patent US20110091994A1, “Methods for Screening Compounds for Treating and/or Preventing an Hepatitis C Virus Infection” (priority 2008, published 2011).
Like-named read-outs stand apart in the source and are kept apart here.

Assays:
[1] = biological target: T1, HCV proteins (Hepatitis C virus genotype 1b, UniProt Q9WMX2); experiment: Validation by Y2H pairwise matrices; format: binding; conditions: validation of interaction with HCV protein NS3;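 note: yeast two-hybrid pairwise tests of interactions first found in Y2H screens of HCV bait proteins against human cDNA libraries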
T1 construct: expressed in transfected cells
T1 sequence (Q9WMX2 1027-1657): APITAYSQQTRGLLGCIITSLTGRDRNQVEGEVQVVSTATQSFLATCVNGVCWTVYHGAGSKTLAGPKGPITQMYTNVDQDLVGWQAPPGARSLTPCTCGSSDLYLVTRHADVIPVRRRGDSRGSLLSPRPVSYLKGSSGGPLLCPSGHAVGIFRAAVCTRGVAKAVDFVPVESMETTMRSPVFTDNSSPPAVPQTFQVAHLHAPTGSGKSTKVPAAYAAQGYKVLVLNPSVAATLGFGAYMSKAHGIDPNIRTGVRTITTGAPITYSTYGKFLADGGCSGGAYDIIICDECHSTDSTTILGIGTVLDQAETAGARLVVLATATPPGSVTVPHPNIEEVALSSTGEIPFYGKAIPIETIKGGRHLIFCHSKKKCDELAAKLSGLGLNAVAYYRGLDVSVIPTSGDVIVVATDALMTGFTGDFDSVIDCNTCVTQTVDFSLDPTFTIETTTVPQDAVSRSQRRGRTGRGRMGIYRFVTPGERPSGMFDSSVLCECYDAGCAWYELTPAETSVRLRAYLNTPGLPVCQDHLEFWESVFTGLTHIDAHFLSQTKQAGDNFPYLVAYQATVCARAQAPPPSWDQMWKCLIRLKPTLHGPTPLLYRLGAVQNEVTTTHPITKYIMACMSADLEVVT

[2] = tested on: HCV ORFs (Gal4-DB fusions); format: binding, HCV genotype 1b, isolate con1; conditions: human protein listed by gene symbol; the value names the HCV protein it interacts with
[3] = biological target: T2, HCV ORFs (Gal4-DB fusions) (Hepatitis C virus genotype 1b, UniProt Q9WMX2); format: binding, HCV genotype 1b, isolate con1; conditions: human protein as prey
T2 construct: expressed in transfected cells; host or cells: Saccharomyces cerevisiae MAV203 (IMAP1) / AH109 (IMAP2)

[4] = biological target: T3, GST-tagged viral proteins (Hepatitis C virus genotype 1b, UniProt Q9WMX2); experiment: Validation by co-affinity purification (CoAP); format: binding, HCV genotype 1b, isolate con1; design: key: +: IMAP validation; −: not validated; NA: non assayable due to default of protein expression or to cellular protein directly interacting with GST
T3 construct: expressed in transfected cells; host or cells: HEK-293T
Description: C. Validation of Y2H interactions by co-affinity purification assay. Nine co-AP positive assays are shown, representing: NS5A-SORBS2 (1), NS3-CALCOCO2 (2), NS5A-BIN1 (3), NS5A-MOBK1B (4), NS5A-EFEMP1 (5), NS3-PSMB9 and NS5A-PSMB9 (6), NS5A-PPPIRI3L (7), NS3-RASAL2 (8). After pull-down with GST tagged viral baits (+) or with negative control GST alone (−), cellular preys are identified with anti-Flag antibody. Anti-GST antibody identifies either GST alone or GST-tagged viral baits. Expression of cellular preys in cell lysate is controlled by anti-Flag (bottom panel). […]
A random pool of 59 IMAP Y2H interactions was chosen for CoAP assays. Cellular ORFs (interacting domains found in Y2H screens) were cloned by recombinational cloning from a pool of human cDNA library or the MGC cDNA plasmids using KOD polymerase (Toyobo) into pDONR207 (Invitrogen). After validation by sequencing, these ORFs were transferred to pCi-neo-3xFLAG gateway-converted, and HCV ORFs were transferred into pDEST27 (GST fusion in N-term). HEK-293T cells were then co-transfected (JetPei, Polyplus) by each pair of plasmid encoding interacting proteins. Controls are GST alone against 3xFLAG-tagged preys. Two days after transfection, cells were harvested and lysed (0.5% NP-40, 20 mM Tris-HCl (pH 8.0), 180 mM NaCl, 1 mM EDTA, and complete protease inhibitor cocktail). Cell lysates were cleared by centrifugation for 20 min at 13,000 rpm at 4° C. and soluble protein complexes were purified using Glutathione Sepharose 4B beads (GE Healthcare). Beads were then washed extensively four times with lysis buffer and proteins were separated on SDS-PAGE and transferred to nitrocellulose membrane. GST-tagged viral proteins and 3xFLAG-tagged cellular proteins were detected using standard immunoblotting techniques using anti-GST (Covance) and anti-FLAG M2 (Sigma) monoclonal antibodies (21).

[5] = validation of interaction with HCV protein NS3
[6] = interaction with HCV protein NS5A
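Throughout, for IMAP Y2H IMAP1 (number of IST): yeast two-hybrid screens using HCV genotype 1b proteins fused to Gal4-DB as baits against prey cDNA libraries from human spleen and foetal brain, IMAP1 via transformation and IMAP2 via mating.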
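Throughout, for IMAP Y2H IMAP2 (number of IST): yeast two-hybrid screens using HCV genotype 1b proteins fused to Gal4-DB as baits against prey cDNA libraries from human spleen and foetal brain, IMAP1 via transformation and IMAP2 via mating.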
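Throughout, for Interaction with viral protein: yeast two-hybrid screens using HCV genotype 1b proteins fused to Gal4-DB as baits against prey cDNA libraries from human spleen and foetal brain, IMAP1 via transformation and IMAP2 via mating.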

Molecule | Y2H matrices [1] | Interaction with viral protein [2] | IMAP Y2H IMAP1 (number of IST) ([3]; HCV protein NS3 as bait) | IMAP Y2H IMAP2 (number of IST) ([3]; HCV protein NS3 as bait) | CoAP [4, 5] | IMAP Y2H IMAP2 (number of IST) ([3]; HCV protein NS5A as bait) | CoAP [4, 6]
EIF4ENIF1 (protein, UniProt Q9NRA8 1-985, looked up) Eukaryotic translation …: MDRRSMGETESGDAFLDLKKPPASKCPHRYTKEELLDIKELPHSKQRPSCLSEKYDSDGVWDPEKWHASLYPASGRSSPVESLKKELDTDRPSLVRRIVDPRERVKEDDLDVVLSPQRRSFGGGCHVTAAVSSRRSGSPLEKDSDGLRLLGGRRIGSGRIISARTFEKDHRLSDKDLRDLRDRDRERDFKDKRFRREFGDSKRVFGERRRNDSYTEEEPEWFSAGPTSQSETIELTGFDDKILEEDHKGRKRTRRRTASVKEGIVECNGGVAEEDEVEVILAQEPAADQEVPRDAVLPEQSPGDFDFNEFFNLDKVPCLASMIEDVLGEGSVSASRFSRWFSNPSRSGSRSSSLGSTPHEELERLAGLEQAILSPGQNSGNYFAPIPLEDHAENKVDILEMLQKAKVDLKPLLSSLSANKEKLKESSHSGVVLSVEEVEAGLKGLKVDQQVKNSTPFMAEHLEETLSAVTNNRQLKKDGDMTAFNKLVSTMKASGTLPSQPKVSRNLESHLMSPAEIPGQPVPKNILQELLGQPVQRPASSNLLSGLMGSLEPTTSLLGQRAPSPPLSQVFQTRAASADYLRPRIPSPIGFTPGPQQLLGDPFQGMRKPMSPITAQMSQLELQQAALEGLALPHDLAVQAANFYQPGFGKPQVDRTRDGFRNRQQRVTKSPAPVHRGNSSSPAPAASITSMLSPSFTPTSVIRKMYESKEKSKEEPASGKAALGDSKEDTQKASEENLLSSSSVPSADRDSSPTTNSKLSALQRSSCSTPLSQANRYTKEQDYRPKATGRKTPTLASPVPTTPFLRPVHQVPLVPHVPMVRPAHQLHPGLVQRMLAQGVHPQHLPSLLQTGVLPPGMDLSHLQGISGPILGQPFYPLPAASHPLLNPRPGTPLHLAMVQQQLQRSVLHPPGSGSHAAAVSVQTTPQNVPSRSGLPHMHSQLEHRPSQRSSSPVGLAKWFGSDVLQQPLPSMPAKVISVDELEYRQ | + | NS3 | 2 | 3 | + |  | 
EFEMP1 (protein, UniProt Q12805 18-493, looked up) EGF-containing fibulin-like …: QDTEETITYTQCTDGYEWDPVRQQCKDIDECDIVPDACKGGMKCVNHYGGYLCLPKTAQIIVNNEQPQQETQPAEGTSGATTGVVAASSMATSGVLPGGGFVASAAAVAGPEMQTGRNNFVIRRNPADPQRIPSNPSHRIQCAAGYEQSEHNVCQDIDECTAGTHNCRADQVCINLRGSFACQCPPGYQKRGEQCVDIDECTIPPYCHQRCVNTPGSFYCQCSPGFQLAANNYTCVDINECDASNQCAQQCYNILGSFICQCNQGYELSSDRLNCEDIDECRTSSYLCQYQCVNEPGKFSCMCPQGYQVVRSRTCQDINECETTNECREDEMCWNYHGGFRCYPRNPCQDPYILTPENRCVCPVSNAMCRELPQSIVYKYMSIRSDRSVPSDIFQIQATTIYANTINTFRIKSGNENGEFYLRQTSPVSAMLVLVKSLSGPREHIVDLEMLTVSSIGTFRTSSVLRLTIIVGPFSF | + | NS3 and NS5A | 10 |  |  | 2 | +
FRS3 (protein, UniProt O43559 2-492, looked up) Fibroblast growth factor …: GSCCSCLNRDSVPDNHPTKFKVTNVDDEGVELGSGVMELTQSELVLHLHRREAVRWPYLCLRRYGYDSNLFSFESGRRCQTGQGIFAFKCSRAEEIFNLLQDLMQCNSINVMEEPVIITRNSHPAELDLPRAPQPPNALGYTVSSFSNGCPGEGPRFSAPRRLSTSSLRHPSLGEESTHALIAPDEQSHTYVNTPASEDDHRRGRHCLQPLPEGQAPFLPQARGPDQRDPQVFLQPGQVKFVLGPTPARRHMVKCQGLCPSLHDPPHHNNNNEAPSECPAQPKCTYENVTGGLWRGAGWRLSPEEPGWNGLAHRRAALLHYENLPPLPPVWESQAQQLGGEAGDDGDSRDGLTPSSNGFPDGEEDETPLQKPTSTRAAIRSHGSFPVPLTRRRGSPRVFNFDFRRPGPEPPRQLNYIQVELKGWGGDRPKGPQNPSSPQAPMPTTHPARSSDSYAVIDLKKTVAMSNLQRALPRDDGTARKTRHNSTDLPL | + | NS3 | 2 | 1 | + |  | 
TMF1 (protein, UniProt P82094 1-1093, looked up) TATA element modulatory factor: MSWFNASQLSSFAKQALSQAQKSIDRVLDIQEEEPSIWAETIPYGEPGISSPVSGGWDTSTWGLKSNTEPQSPPIASPKAITKPVRRTVVDESENFFSAFLSPTDVQTIQKSPVVSKPPAKSQRPEEEVKSSLHESLHIGQSRTPETTESQVKDSSLCVSGETLAAGTSSPKTEGKHEETVNKESDMKVPTVSLKVSESVIDVKTTMESISNTSTQSLTAETKDIALEPKEQKHEDRQSNTPSPPVSTFSSGTSTTSDIEVLDHESVISESSASSRQETTDSKSSLHLMQTSFQLLSASACPEYNRLDDFQKLTESCCSSDAFERIDSFSVQSLDSRSVSEINSDDELSGKGYALVPIIVNSSTPKSKTVESAEGKSEEVNETLVIPTEEAEMEESGRSATPVNCEQPDILVSSTPINEGQTVLDKVAEQCEPAESQPEALSEKEDVCKTVEFLNEKLEKREAQLLSLSKEKALLEEAFDNLKDEMFRVKEESSSISSLKDEFTQRIAEAEKKVQLACKERDAAKKEIKNIKEELATRLNSSETADLLKEKDEQIRGLMEEGEKLSKQQLHNSNIIKKLRAKDKENENMVAKLNKKVKELEEELQHLKQVLDGKEEVEKQHRENIKKLNSMVERQEKDLGRLQVDMDELEEKNRSIQAALDSAYKELTDLHKANAAKDSEAQEAALSREMKAKEELSAALEKAQEEARQQQETLAIQVGDLRLALQRTEQAAARKEDYLRHEIGELQQRLQEAENRNQELSQSVSSTTRPLLRQIENLQATLGSQTSSWEKLEKNLSDRLGESQTLLAAAVERERAATEELLANKIQMSSMESQNSLLRQENSRFQAQLESEKNRLCKLEDENNRYQVELENLKDEYVRTLEETRKEKTLLNSQLEMERMKVEQERKKAIFTQETIKEKERKPFSVSSTPTMSRSSSISGVDMAGLQTSFLSQDESHDHSFGPMPISANGSNLYDAVRMGAGSSIIENLQSQLKLREGEITHLQLEIGNLEKTRSIMAEELVKLTNQNDELEEKVKEIPKLRTQLRDLDQRYNTILQMYGEKAEEAEELRLDLEDVKNMYKTQIDELLRQSLS |  | NS5A |  |  |  | 2 | −
SORBS2 (protein, UniProt O94875 1-1100, looked up) Sorbin and SH3 …: MSYYQRPFSPSAYSLPASLNSSIVMQHGTSLDSTDTYPQHAQSLDGTTSSSIPLYRSSEEEKRVTVIKAPHYPGIGPVDESGIPTAIRTTVDRPKDWYKTMFKQIHMVHKPDDDTDMYNTPYTYNAGLYNPPYSAQSHPAAKTQTYRPLSKSHSDNSPNAFKDASSPVPPPHVPPPVPPLRPRDRSSTEKHDWDPPDRKVDTRKFRSEPRSIFEYEPGKSSILQHERPASLYQSSIDRSLERPMSSASMASDFRKRRKSEPAVGPPRGLGDQSASRTSPGRVDLPGSSTTLTKSFTSSSPSSPSRAKGGDDSKICPSLCSYSGLNGNPSSELDYCSTYRQHLDVPRDSPRAISFKNGWQMARQNAEIWSSTEETVSPKIKSRSCDDLLNDDCDSFPDPKVKSESMGSLLCEEDSKESCPMAWGSPYVPEVRSNGRSRIRHRSARNAPGFLKMYKKMHRINRKDLMNSEVICSVKSRILQYESEQQHKDLLRAWSQCSTEEVPRDMVPTRISEFEKLIQKSKSMPNLGDDMLSPVTLEPPQNGLCPKRRFSIEYLLEEENQSGPPARGRRGCQSNALVPIHIEVTSDEQPRAHVEFSDSDQDGVVSDHSDYIHLEGSSFCSESDFDHFSFTSSESFYGSSHHHHHHHHHHHRHLISSCKGRCPASYTRFTTMLKHERARHENTEEPRRQEMDPGLSKLAFLVSPVPFRRKKNSAPKKQTEKAKCKASVFEALDSALKDICDQIKAEKKRGSLPDNSILHRLISELLPDVPERNSSLRALRRSPLHQPLHPLPPDGAIHCPPYQNDCGRMPRSASFQDVDTANSSCHHQDRGGALQDRESPRSYSSTLTDMGRSAPRERRGTPEKEKLPAKAVYDFKAQTSKELSFKKGDTVYILRKIDQNWYEGEHHGRVGIFPISYVEKLTPPEKAQPARPPPPAQPGEIGEAIAKYNFNADTNVELSLRKGDRVILLKRVDQNWYEGKIPGTNRQGIFPVSYVEVVKKNTKGAEDYPDPPIPHSYSSDRIHSLSSNKPQRPVFTHENIQGGGEPFQALYNYTPRNEDELELRESDVIDVMEKCDDGWFVGTSRRTKFFGTFPGNYVKRL |  | NS5A |  |  |  | 8 | +
